In one assay the target is T1, hHER-2-Fc (human, UniProt P04626 23-652).
T1 construct: Bought (R&D systems); Coated on the plate; not shown: Fc of the bought fusion protein
Put plainly: sandwich ELISA with mis-matched antigens. How it is done:
(§1) The dual-binding activity of the same synthesized IgG BsAbs is assessed using a sandwich ELISA. […] Sandwich ELISAs are developed for detecting the four different BsAb test articles; one for detecting anti-HER-2/anti-EGFR BsAb activity, one for detecting anti-HER-2/anti-LTPR BsAb activity, one for detecting anti-cMET/anti-EGFR BsAb activity and one for detecting anti-cMET/anti-LTPR BsAb activity. For all ELISAs, clear 96-well round bottom high binding Immulon microtiter plates (Greiner bio-one, cat #650061) are coated overnight at 2-8° C. with 50 μL/well 1 μg/mL hHER-2-Fc or 1 μg/mL hHGFR(cMet)-Fc (both from R&D systems) in a 50 mM Na2CO3 pH 8.3 buffer. The plates are washed 4 times with PBST and blocked with 200 μL/well casein buffer (Pierce) for 1 hr at room temperature. The plates are then washed 4 times with PBST and the parental IgG controls or BsAb IgG test articles are added at 50 μL/well and […] and serially diluted 1:3 down the plate. The controls and test articles are incubated on the plate for 1 hr at room temperature. The plates are then washed 4 times with PBST and 50 μL/well 1 μg/mL hEGFR-Fc-biotin or hLTβR-Fc-biotin (both from R&D systems) is added for 1 hr at room temperature. The plates are then washed 4 times with PBST followed by the addition of a 50 μL/well streptavidin-AP (Jackson Immunoresearch Labs Cat. #016-050-084) diluted 1:1000 in casein buffer. The streptavidin-AP is incubated in each well for 1 hr at room temperature. The plates are then washed 4 times with PBST and 100 μL/well 1-step PNPP substrate is added (Thermo Scientific Cat. #37621). After approximately 5-15 minutes, plates are read for Absorbance (405 nm) using a SPECTRAMAX® UV plate reader (Molecular Devices). Biotin-labeling of the hEGFR-Fc and hLTβR-Fc proteins is performed using EZ-LINK™ Sulfo-NHS-LC-Biotin (Thermo Scientific Cat. #21327) according to the manufacturer's protocol.

The target in the next assay is T2, hEGFR-Fc-biotin (human, UniProt P00533 25-645, biotin-labelled with EZ-LINK Sulfo-NHS-LC-Biotin).
T2 construct: Bought (R&D systems); Detection antigen of the sandwich; not shown: Fc of the bought fusion protein
Put plainly: sandwich ELISA with mis-matched antigens. Here is the method:
as §1

B1: MetMAb × BHA10 IgG BsAb, CH1/Cκ Wild-Type (AB / H4DR variable domain designs, 7.8.60 CH3, N297Q) (bispecific antibody)
heavy 1: EVQLVESGGGLVQPGGSLRLSCAASGYTFTSYWLHWVRKAPGKGLEWVGMIDPSNSDTRFNPEFKDRFTISADTSKNTAYLQMNSLRAEDTAVYYCATYRSYVTPLDYWGQGTLVTVSSASTKGPSVFPLAPSSKSTSGGTAALGCLVKDYFPEPVTVSWNSGALTSGVHTFPAVLQSSGLYSLSSVVTVPSSSLGTQTYICNVNHKPSNTKVDKKVEPKSCDKTHTCPPCPAPELLGGPSVFLFPPKPKDTLMISRTPEVTCVVVDVSHEDPEVKFNWYVDGVEVHNAKTKPREEQYQSTYRVVSVLTVLHQDWLNGKEYKCKVSNKALPAPIEKTISKAKGQPREPQVYTLPPSREEMTDNQVSLTCLVKGFYPSDIAVEWESNGQPENNYKTTPPVLMSDGSFFLASKLTVDKSRWQQGNVFSCSVMHEALHNHYTQKSLSLSPG
light 1: RIQMTQSPSSLSASVGDRVTITCKSSQSLLYTSSQKNYLAWYQDKPGKAPKLLIYWASTRESGVPSRFSGSGSGTDFTLTISSLQPEDFATYYCQQYYAYPWTFGQGTKVEIKRTVAAPSVFIFPPSDEQLKSGTASVVCLLNNFYPREAKVQWKVDNALQSGNSQESVTEQDSKDSTYSLSSTLTLSKADYEKHKVYACEVTHQGLSSPVTKSFNRGEC
heavy 2: QVQLVQSGAEVKKPGSSVKVSCKASGYTFTTYYLHWVRYAPGQGLEWMGWIYPGNVHAQYNEKFKGRVTITADKSTSTAYMELSSLRSEDTAVYYCARSWEGFPYWGRGTTVTVSSASTKGPSVFPLAPSSKSTSGGTAALGCLVKDYFPEPVTVSWNSGALTSGVHTFPAVLQSSGLYSLSSVVTVPSSSLGTQTYICNVNHKPSNTKVDKKVEPKSCDKTHTCPPCPAPELLGGPSVFLFPPKPKDTLMISRTPEVTCVVVDVSHEDPEVKFNWYVDGVEVHNAKTKPREEQYQSTYRVVSVLTVLHQDWLNGKEYKCKVSNKALPAPIEKTISKAKGQPRRPRVYTLPPSREEMTKNQVSLVCLVKGFYPSDIAVEWESNGQPENNYKTTPPVLDSDGSFFLYSVLTVDKSRWQQGNVFSCSVMHEALHNHYTQKSLSLSPG
light 2: DIQMTQSPSSLSASVGDRVTITCKASQNVGINVAWYQRKPGDAPKSLISSASYRYSGVPSRFSGSGSGTDFTLTISSLQPEDFATYFCQQYDTYPFTFGQGTKVEIKRTVAAPSVFIFPPSDEQLKSGTASVVCLLNNFYPREAKVQWKVDNALQSGNSQESVTEQDSKDSTYSLSSTLTLSKADYEKHKVYACEVTHQGLSSPVTKSFNRGEC
notes: Human IgG1; Tested as protein G purified product of four-plasmid co-expression; also called MetMAb × BHA10 Wild-Type
Consider B1, for which the binding result with hHER-2-Fc and with hEGFR-Fc-biotin was “no binding” in each case.

B2: MetMAb × BHA10 IgG BsAb, CH1/Cκ design 14.1.2 (bispecific antibody)
heavy 1: EVQLVESGGGLVQPGGSLRLSCAASGYTFTSYWLHWVRKAPGKGLEWVGMIDPSNSDTRFNPEFKDRFTISADTSKNTAYLQMNSLRAEDTAVYYCATYRSYVTPLDYWGQGTLVTVSSASTKGPSVFPLAPSSKSTSGGTAALGCLVADYFPEPVTVSWNSGALTSGVHTFPAVLQSSGLYSLSSVVTVPSSSLGTQTYICNVNHKPSNTKVDEKVEPKSCDKTHTCPPCPAPELLGGPSVFLFPPKPKDTLMISRTPEVTCVVVDVSHEDPEVKFNWYVDGVEVHNAKTKPREEQYQSTYRVVSVLTVLHQDWLNGKEYKCKVSNKALPAPIEKTISKAKGQPREPQVYTLPPSREEMTDNQVSLTCLVKGFYPSDIAVEWESNGQPENNYKTTPPVLMSDGSFFLASKLTVDKSRWQQGNVFSCSVMHEALHNHYTQKSLSLSPG
light 1: RIQMTQSPSSLSASVGDRVTITCKSSQSLLYTSSQKNYLAWYQDKPGKAPKLLIYWASTRESGVPSRFSGSGSGTDFTLTISSLQPEDFATYYCQQYYAYPWTFGQGTKVEIKRTVAAPSVFIFPPSDKQLKSGTARVVCLLNNFYPREAKVQWKVDNALQSGNSQESVTEQDSKDSTYSLSSTLTLSKADYEKHKVYACEVTHQGLSSPVTKSFNRGEC
heavy 2: QVQLVQSGAEVKKPGSSVKVSCKASGYTFTTYYLHWVRYAPGQGLEWMGWIYPGNVHAQYNEKFKGRVTITADKSTSTAYMELSSLRSEDTAVYYCARSWEGFPYWGRGTTVTVSSASTKGPSVFPLAPSSKSTSGGTAALGCLVKDYFPEPVTVSWNSGALTSGVHTFPAVLQSSGLYSLSSVVTVPSSSLGTQTYICNVNHKPSNTKVDKKVEPKSCDKTHTCPPCPAPELLGGPSVFLFPPKPKDTLMISRTPEVTCVVVDVSHEDPEVKFNWYVDGVEVHNAKTKPREEQYQSTYRVVSVLTVLHQDWLNGKEYKCKVSNKALPAPIEKTISKAKGQPRRPRVYTLPPSREEMTKNQVSLVCLVKGFYPSDIAVEWESNGQPENNYKTTPPVLDSDGSFFLYSVLTVDKSRWQQGNVFSCSVMHEALHNHYTQKSLSLSPG
light 2: DIQMTQSPSSLSASVGDRVTITCKASQNVGINVAWYQRKPGDAPKSLISSASYRYSGVPSRFSGSGSGTDFTLTISSLQPEDFATYFCQQYDTYPFTFGQGTKVEIKRTVAAPSVFIFPPSDEQLKSGTASVVCLLNNFYPREAKVQWKVDNALQSGNSQESVTEQDSKDSTYSLSSTLTLSKADYEKHKVYACEVTHQGLSSPVTKSFNRGEC
notes: Human IgG1; also called MetMAb × BHA10 14.1.2
For B2, the binding result with hHER-2-Fc and with hEGFR-Fc-biotin was “no binding” in each case.

B3: MetMAb × BHA10 IgG BsAb, CH1/Cκ design 14.3.1.1 (bispecific antibody)
heavy 1: EVQLVESGGGLVQPGGSLRLSCAASGYTFTSYWLHWVRKAPGKGLEWVGMIDPSNSDTRFNPEFKDRFTISADTSKNTAYLQMNSLRAEDTAVYYCATYRSYVTPLDYWGQGTLVTVSSASTKGPSVFPLAPSSKSTSGGTAALGCLVADYFPEPVTVSWNSGALTSGVHTFPAVLQSSGLYSLASVVTVPSSSLGTQTYICNVNHKPSNTKVDKKVEPKSCDKTHTCPPCPAPELLGGPSVFLFPPKPKDTLMISRTPEVTCVVVDVSHEDPEVKFNWYVDGVEVHNAKTKPREEQYQSTYRVVSVLTVLHQDWLNGKEYKCKVSNKALPAPIEKTISKAKGQPREPQVYTLPPSREEMTDNQVSLTCLVKGFYPSDIAVEWESNGQPENNYKTTPPVLMSDGSFFLASKLTVDKSRWQQGNVFSCSVMHEALHNHYTQKSLSLSPG
light 1: RIQMTQSPSSLSASVGDRVTITCKSSQSLLYTSSQKNYLAWYQDKPGKAPKLLIYWASTRESGVPSRFSGSGSGTDFTLTISSLQPEDFATYYCQQYYAYPWTFGQGTKVEIKRTVAAPSVFIFPPSDEQLKSGTARVVCLLNNFYPREAKVQWKVDNALQSGNSQESVTEQDSKDSTYSLISTLTLSKADYEKHKVYACEVTHQGLSSPVTKSFNRGEC
heavy 2: QVQLVQSGAEVKKPGSSVKVSCKASGYTFTTYYLHWVRYAPGQGLEWMGWIYPGNVHAQYNEKFKGRVTITADKSTSTAYMELSSLRSEDTAVYYCARSWEGFPYWGRGTTVTVSSASTKGPSVFPLAPSSKSTSGGTAALGCLVKDYFPEPVTVSWNSGALTSGVHTFPAVLQSSGLYSLSSVVTVPSSSLGTQTYICNVNHKPSNTKVDEKVEPKSCDKTHTCPPCPAPELLGGPSVFLFPPKPKDTLMISRTPEVTCVVVDVSHEDPEVKFNWYVDGVEVHNAKTKPREEQYQSTYRVVSVLTVLHQDWLNGKEYKCKVSNKALPAPIEKTISKAKGQPRRPRVYTLPPSREEMTKNQVSLVCLVKGFYPSDIAVEWESNGQPENNYKTTPPVLDSDGSFFLYSVLTVDKSRWQQGNVFSCSVMHEALHNHYTQKSLSLSPG
light 2: DIQMTQSPSSLSASVGDRVTITCKASQNVGINVAWYQRKPGDAPKSLISSASYRYSGVPSRFSGSGSGTDFTLTISSLQPEDFATYFCQQYDTYPFTFGQGTKVEIKRTVAAPSVFIFPPSDKQLKSGTASVVCLLNNFYPREAKVQWKVDNALQSGNSQESVTEQDSKDSTYSLSSTLTLSKADYEKHKVYACEVTHQGLSSPVTKSFNRGEC
notes: Human IgG1; also called MetMAb × BHA10 14.3.1.1
For the molecule B3, the binding result with hHER-2-Fc and in the assay with hEGFR-Fc-biotin was “no binding” throughout.
